# ± gives the standard deviation of the averaged measurements.
# System: ATP
# Assay: switch fluorescence ratio, 500 uM ATP over buffer (Cy3 cluster intensity, sum of 5 cycles each) (fold (ratio)); higher = stronger signal-on switching upon ATP binding; sequences stand for … in TCGTCGGCAGCGTCAGATGTGTATAAGAGACAGTTTTTTTTTTTTTTTTTTTTTTTTT…TC
# Settings: aptamer strand: ATP DNA aptamer (quencher-CACCTGGGGGAGTATTGCGGAGGAAGG + anchor), 100 nM annealed; ATP concentration: 500 uM
# Summary of the method: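 The fluorescence ratio divides summed target-cycle Cy3 intensity by summed buffer-cycle Cy3 intensity for each cluster and is averaged per switch-domain sequence. Cy3-labelled switching-strand clusters on a modified Illumina MiSeq flow-cell were annealed to 100 nM quencher-labelled ATP aptamer, then imaged in selection buffer and again after 15 min with 500 uM ATP at 22 °C. Five such cycles were run, with NaOH stripping and re-annealing between them, and clusters outside 100-1000 RFU were excluded.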
# 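Also: ATP exposure 15 min at 22 °C before imaging.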
row,Sequence,switch fluorescence ratio
1,ATAGTCGCCC,1.009 ± 0.0031
2,ATAGTCGCGC,0.993 ± 0.058
3,ATAGTGAAGT,0.982 ± 0.019
4,ATAGTTAAAC,1.01 ± 0.012
5,ATAGTTTG,0.97739 ± 0.00022
6,ATATAAGCGG,1.02 ± 0.047
7,ATATAATGAT,1.02 ± 0.02
8,ATATAATTTG,1.04 ± 0.055
9,ATATACGAGT,1.002 ± 0.005
10,ATATACGGTA,1.15 ± 0.03
11,ATATAGAGGG,0.9958 ± 0.0031
12,ATATAGGATT,0.9893 ± 0.0068
13,ATATAGTTGT,0.999 ± 0.016
14,ATATATGAAA,0.998 ± 0.024
15,ATATATGTAA,0.994 ± 0.023
16,ATATATGTAC,1.085 ± 0.0016
17,ATATATTAAA,0.981 ± 0.03
18,ATATCATGTT,0.995 ± 0.036
19,ATATCCGGTT,1 ± 0.041
20,ATATCCGTCA,1.05 ± 0.051
21,ATATCCTTCA,1.35 ± 0.43
22,ATATCGGTGT,0.991 ± 0.029
23,ATATCGTATT,1 ± 0.013
24,ATATCTAGTT,0.989 ± 0.084
25,ATATCTATGG,0.994 ± 0.025

row,Sequence,switch fluorescence ratio
1,ATATCTGCTT,0.978 ± 0.035
2,ATATGACTTT,1.01 ± 0.052
3,ATATGAGGGA,1.01 ± 0.026
4,ATATGAGTTT,1.01 ± 0.017
5,ATATGATATC,1.03 ± 0.062
6,ATATGCAGGG,0.993 ± 0.00024
7,ATATGCGATG,0.97 ± 0.051
8,ATATGCGGGC,1.02 ± 0.05
9,ATATGCGTCG,0.95 ± 0.027
10,ATATGGACGC,1.01 ± 0.046
11,ATATGGCACT,1.008 ± 0.0034
12,ATATGGGAAG,1 ± 0.048
13,ATATGGGAGG,0.969 ± 0.016
14,ATATGGGGAC,1.01 ± 0.024
15,ATATGTATCA,1.06 ± 0.033
16,ATATGTGGAG,0.987 ± 0.011
17,ATATTATCAA,1 ± 0.012
18,ATATTATTAA,0.975 ± 0.014
19,ATATTCGCAC,1.19 ± 0.063
20,ATATTCGCGG,1.01 ± 0.015
21,ATATTCTGAA,0.976 ± 0.017
22,ATATTGAAAT,1.01 ± 0.033
23,ATATTGAGCT,0.976 ± 0.022
24,ATATTGATAT,1.01 ± 0.021
25,ATATTGGAAG,1.011 ± 0.01

row,Sequence,switch fluorescence ratio
1,ATATTGGAAT,1.02 ± 0.024
2,ATATTGGGAG,0.99 ± 0.025
3,ATATTGGGGG,0.998 ± 0.025
4,ATATTGTCAT,0.962 ± 0.015
5,ATATTTATTG,0.998 ± 0.04
6,ATATTTGCTT,1 ± 0.025
7,ATATTTGTAT,1 ± 0.012
8,ATATTTGTCA,1.03 ± 0.022
9,ATCAAATATG,1.01 ± 0.008
10,ATCAAATGTA,0.981 ± 0.024
11,ATCAAGGACG,1.02 ± 0.05
12,ATCAATCCTT,1.03 ± 0.029
13,ATCAATGAAC,1.05 ± 0.018
14,ATCACAATCA,1.02 ± 0.023
15,ATCACACATT,1.02 ± 0.032
16,ATCACGTGAT,1.01 ± 0.023
17,ATCACTTGAC,1.104 ± 0.0078
18,ATCAGCGCGG,1.013 ± 0.0027
19,ATCAGGGCAA,1.26 ± 0.18
20,ATCATAATGT,0.983 ± 0.032
21,ATCATCTTCG,1.02 ± 0.015
22,ATCATGCGGG,0.99749 ± 7e-05
23,ATCATGGCAC,1.04 ± 0.025
24,ATCATGGCTT,1.03 ± 0.011
25,ATCATGGGGG,0.986 ± 0.022

row,Sequence,switch fluorescence ratio
1,ATCATGGTGC,1.13 ± 0.074
2,ATCATGTCTA,1.04 ± 0.047
3,ATCATGTTAT,0.986 ± 0.011
4,ATCATTCGGT,0.9964 ± 0.0074
5,ATCCAAGTAA,1.04 ± 0.021
6,ATCCCAGGTA,2.009 ± 0.0073
7,ATCCCGGGAT,1 ± 0.022
8,ATCCGAGGAG,1.05 ± 0.012
9,ATCCGATACG,1.18 ± 0.023
10,ATCCGCGTAG,2.17 ± 0.017
11,ATCCTCGGGA,1.01 ± 0.034
12,ATCCTTTAAC,1 ± 0.032
13,ATCCTTTCAG,0.995 ± 0.016
14,ATCGAAAAAC,1.01 ± 0.05
15,ATCGAAGGGA,0.985 ± 0.041
16,ATCGAATATT,0.983 ± 0.031
17,ATCGAGCATG,1.03 ± 0.051
18,ATCGAGTAGG,1.008 ± 0.005
19,ATCGATGAAT,0.995 ± 0.015
20,ATCGATTATC,0.988 ± 0.021
21,ATCGATTGAT,1.02 ± 0.011
22,ATCGATTTTA,0.978 ± 0.056
23,ATCGCATGGG,1.03 ± 0.013
24,ATCGCGGGCA,1.02 ± 0.027
25,ATCGCGGGGG,1.009 ± 0.0021

# Source: the supplement of paper PMC10126150
